Measured values taken from US20200308288A1 (OSE IMMUNOTHERAPEUTICS, published 2020).

Tests used:
[1] = target: T1, recombinant hCD127 (Sino Biologicals, reference 10975-H08H) (human, UniProt P16871 21-239); test: ELISA on immobilised recombinant hCD127 (1 µg/ml) after storage under different conditions
T1 construct: also called rCD127; CD127 protein
T1 chain: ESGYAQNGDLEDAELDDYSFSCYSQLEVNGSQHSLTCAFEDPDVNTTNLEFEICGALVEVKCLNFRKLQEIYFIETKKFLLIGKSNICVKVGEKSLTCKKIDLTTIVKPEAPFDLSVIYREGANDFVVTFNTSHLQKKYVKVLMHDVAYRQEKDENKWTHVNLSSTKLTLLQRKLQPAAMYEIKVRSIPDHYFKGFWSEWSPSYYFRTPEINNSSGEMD
Method: Humanized Effi3 antibody (clone VH3VL4) was incubated at 4° C., 37° C., at −80° C. or at room Temperature for 28 days. The binding activity was tested by ELISA assay, recombinant hCD127 (Sino Biologicals, Beijing, China; reference 10975-H08H) was immobilized on plastic at 1 μg/ml and dilutions of supernatant were added to measure binding. […] Increase doses of Mabs were added to measure binding.

[2] = target: T1, recombinant hCD127 (Sino Biologicals, …); test: ELISA, recombinant hCD127 immobilised at 1 µg/ml, purified antibody
Method: The binding activity of the anti hCD127 antibody was assessed by ELISA (Enzyme-linked immunosorbent assay). For the ELISA assay, recombinant hCD127 (Sino Biologicals, Beijing, China; reference 10975-H08H) was immobilized on plastic at 1μg/ml and purified antibody were added to measure binding.

B1: Effi3-VH3VL4 (antibody, human IgG1, kappa, V domains shown)
VH: AVQLVESGGGLVQPGGSLKITCAASGFTFTNAAMYWVRQAPGKGLEWVARIRTKANNYATYYADSVKGRFTISRDDSKSTVYLQMDSVKTEDTATYYCIVVVLTTTRDYFDYWGQGVLVTVSS
VL: DIVLTQSPSSLPVTPGEPASISCRSSQDLLTVKGITSLYWFLQKPGQSPKLLIYRMSNRDSGVPDRFSGSGSGTDFTLKISRVEAEDVGTYYCAQFLEYPHTFGAGTKLELKR
notes: Humanized from rat MD707-3; also called Effi3 H3L4; VHvar3+VLvar4
With B1 the “EC50 (read off the curve)” value [1] was about 6 ng/mL and the EC50 [2] was 4 ng/mL.

B2: Effi3-VH3VL3 (antibody, human IgG1, kappa, V domains shown)
VH: AVQLVESGGGLVQPGGSLKITCAASGFTFTNAAMYWVRQAPGKGLEWVARIRTKANNYATYYADSVKGRFTISRDDSKSTVYLQMDSVKTEDTATYYCIVVVLTTTRDYFDYWGQGVLVTVSS
VL: DIVLTQSPSSLPVTPGEPASISCRSSQSLLTVKGITSLYWFLQKPGQSPKLLIYRMSNRDSGVPDRFSGSGSETDFTLKISRVEAEDVGTYYCAQFLEYPHTFGAGTKLELKR
notes: Humanized from rat MD707-3; They are built here from the variable and constant entries so that the signal peptide is left out; also called Effi3 H3L3; VHvar3+VLvar3
Work on B2 yielded an EC50 [2] of 4 ng/mL.

B3: MD707-3 (antibody, V domains shown)
VH: AVHLVESGGGLVQPKESLKISCAASGFTFSNAAMYWVRQAPGKGLEWVARIRTKANNYATYYAESVKGRFTISRDDSKSMVYLQMDNVKTDDTAMYYCIVVVLTTTRDYFDYWGQGVMVTVSS
VL: DIVLTQAPLSVSVTPGESASISCRSSQSLLTVKGITSLYWFLQKPGKSPQLLIYRMSNLASGVPDRFRGSGSETDFTLKISKVETEDVGVYYCAQFLEYPHTFGAGTKLELKR
notes: Rat anti-human CD127 antibody; also called MD707-3 chimeric antibody; MD707-3 mAb
B3 was tested, and the EC50 [2] was 3.4 ng/mL.
